From publication PMC4931317, “UtpA and UtpB chaperone nascent pre-ribosomal RNA and U3 snoRNA to initiate eukaryotic ribosome assembly” (Nature Communications, 2016)

B2: Utp5 (natural protein, S. cerevisiae, UniProt Q04177 1-643, looked up)
chain: MDSPVLQSAYDPSGQYLCYVTVALDKQRVGVQPTQRATSSGVDTVWNENFLYLEDSKLKVTCLKWVNLASSDTVAIILGMNNGEIWLYSVLANEVTYKFTTGNSYEIKDIDLMGNQLWCIDSSDAFYQFDLLQFKLLQHFRINNCVQLNKLTIVPAGDSVAQLLVASHSISLIDIEEKKVVMTFPGHVSPVSTLQVITNEFFISGAEGDRFLNVYDIHSGMTKCVLVAESDIKELSHSGQADSIAVTTEDGSLEIFVDPLVSSSTKKRGNKSKKSSKKIQIVSKDGRKVPIYNAFINKDLLNVSWLQNATMPYFKNLQWREIPNEYTVEISLNWNNKNKSADRDLHGKDLASATNYVEGNARVTSGDNFKHVDDAIKSWERELTSLEQEQAKPPQANELLTETFGDKLESSTVARISGKKTNLKGSNLKTATTTGTVTVILSQALQSNDHSLLETVLNNRDERVIRDTIFRLKPALAVILLERLAERIARQTHRQGPLNVWVKWCLIIHGGYLVSIPNLMSTLSSLHSTLKRRSDLLPRLLALDARLDCTINKFKTLNYEAGDIHSSEPVVEEDEDDVEYNEELDDAGLIEDGEESYGSEEEEEGDSDNEEEQKHTSSKQDGRLETEQSDGEEEAGYSDVEME
notes: Utp5, S. cerevisiae, subunit of UtpA; No tag is named for it in either strain; strains are in Supplementary Data 1; source: endogenous, S. cerevisiae YSK32, co-purified with Utp10-GFP; overexpressed (galactose promoter) in S. cerevisiae YSK122, co-purified with Utp15-mCherry
B3: Utp8 (natural protein, S. cerevisiae, UniProt P53276 1-713, looked up)
chain: MPSLSQPFRLATLPKIASLSNFSLQADYVQVADGTFNESTNNITLGISGSSISQYIINPTPKLTFDYPIPSTNIITACNAEKGQANIDGNIEASTDDEANNEKTINTQKKRNVEIWAFGLMVNKGNYTLNVITKALEDTTDTSNDHLSESDIDNKAYTGSDEFLSQYKIKAKAKVMSIKIDTKNSLVIAILQNGLIEIFDFKLTLLHSFDISYDNLKYAKWFTENGTEYVFVLCPLQDDKVCYKLLELTDCGSGESSPIKELSSTIIEGFSFENSKLCYQFGKLYKLNQGKIYIYSLPHCQLQQVIEFPMVDKLSPGDDLISFQPVSVNRVLLTVNNVIYLLDLLHCSTLSQRELTHVKTFQLLKSAVINSEKSHNSKTIAIGISTKNGPNPTSSLEIINIDVGTNTLKDSLGKSFQVGNNDSSVILKPLFDDKDINDKRVKCNDVSGDSSVPVLHCNEVIEKLSALQDNDITSFDDIFFKELKIKEEHYTEKDRYISDPGFLNKVLDLIFGKFSGNDYPKTLTFLLTHPLFPLSRTRNLLSLLRDQPRLFKQAIVTCPNLPLNELLEELFSIRNRELLLDISFRILQDFTRDSIKQEMKKLSKLDVQNFIEFITSGGEDSSPECFNPSQSTQLFQLLSLVLDSIGLFSLEGALLENLTLYIDKQVEIAERNTELWNLIDTKGFQHGFASSTFDNGTSQKRALPTYTMEYLDI
notes: Utp8, S. cerevisiae, subunit of UtpA; No tag is named for it in either strain; strains are in Supplementary Data 1; source: endogenous, S. cerevisiae YSK32, co-purified with Utp10-GFP; overexpressed (galactose promoter) in S. cerevisiae YSK122, co-purified with Utp15-mCherry

Columns and labels:
Utp5 = target: B2; assay: pull-down; Utp4, Utp5, Utp8, Utp9 and Utp15-3myc-TEV-mCherry-3FLAG overexpressed in yeast YSK122; lysate on anti-mCherry nanobody sepharose; 50 mM HEPES-NaOH pH 7.6, 100 mM NaCl, 4 °C; TEV elution; conditions: partners not purified
Utp9 = target: T1, Utp9 (S. cerevisiae, UniProt P38882 1-575); assay: as above; conditions: partners not purified
T1 construct: Utp9, S. cerevisiae, subunit of UtpA; No tag is named for it in either strain; strains are in Supplementary Data 1; source: endogenous, S. cerevisiae YSK32, co-purified with Utp10-GFP; overexpressed (galactose promoter) in S. cerevisiae YSK122, co-purified with Utp15-mCherry
T1 sequence (looked up): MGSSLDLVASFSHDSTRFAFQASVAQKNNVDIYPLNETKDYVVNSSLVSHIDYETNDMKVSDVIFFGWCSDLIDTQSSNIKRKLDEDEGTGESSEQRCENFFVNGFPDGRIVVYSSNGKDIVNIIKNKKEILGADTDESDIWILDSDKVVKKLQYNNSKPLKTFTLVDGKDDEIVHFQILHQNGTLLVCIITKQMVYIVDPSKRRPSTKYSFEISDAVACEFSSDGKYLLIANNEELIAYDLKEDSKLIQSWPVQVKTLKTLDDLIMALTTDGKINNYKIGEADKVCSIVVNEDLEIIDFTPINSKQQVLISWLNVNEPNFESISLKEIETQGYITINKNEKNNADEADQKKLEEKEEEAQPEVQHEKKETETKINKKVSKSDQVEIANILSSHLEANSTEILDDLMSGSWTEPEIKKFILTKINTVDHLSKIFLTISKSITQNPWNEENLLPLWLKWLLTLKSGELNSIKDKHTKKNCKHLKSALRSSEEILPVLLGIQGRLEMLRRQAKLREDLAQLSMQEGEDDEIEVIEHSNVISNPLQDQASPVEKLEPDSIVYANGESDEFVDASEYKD

Utp8 = target: B3; assay: as above; conditions: partners not purified
Utp10-3C-GFP [1] = target: T2, Utp10-3C-GFP (S. cerevisiae, UniProt P42945 1-1769); assay: pull-down + SEC; endogenous UtpA from YSK32 lysate captured via Utp10-GFP on anti-GFP nanobody sepharose; 50 mM HEPES-NaOH pH 7.6, 200 mM NaCl, 1 mM EDTA, 4 °C; eluted with TEV and 3C protease; Superose 6; peak fraction on Coomassie-stained SDS-PAGE; conditions: partners not purified
T2 construct: Utp10, S. cerevisiae, subunit of UtpA (200 kDa); GFP is joined through a 3C protease site; it holds the protein on the beads in a1-a3 and is cleaved off by 3C on elution, so it is absent in the SEC step and in the DSS cross-linking (a6); also called Utp10-GFP; Utp10-sbp-H14-3C-GFP; source: S. cerevisiae YSK32, C-terminal tag integrated in the genome, endogenous level; captured from lysate on …
T2 sequence (P42945 whole entry): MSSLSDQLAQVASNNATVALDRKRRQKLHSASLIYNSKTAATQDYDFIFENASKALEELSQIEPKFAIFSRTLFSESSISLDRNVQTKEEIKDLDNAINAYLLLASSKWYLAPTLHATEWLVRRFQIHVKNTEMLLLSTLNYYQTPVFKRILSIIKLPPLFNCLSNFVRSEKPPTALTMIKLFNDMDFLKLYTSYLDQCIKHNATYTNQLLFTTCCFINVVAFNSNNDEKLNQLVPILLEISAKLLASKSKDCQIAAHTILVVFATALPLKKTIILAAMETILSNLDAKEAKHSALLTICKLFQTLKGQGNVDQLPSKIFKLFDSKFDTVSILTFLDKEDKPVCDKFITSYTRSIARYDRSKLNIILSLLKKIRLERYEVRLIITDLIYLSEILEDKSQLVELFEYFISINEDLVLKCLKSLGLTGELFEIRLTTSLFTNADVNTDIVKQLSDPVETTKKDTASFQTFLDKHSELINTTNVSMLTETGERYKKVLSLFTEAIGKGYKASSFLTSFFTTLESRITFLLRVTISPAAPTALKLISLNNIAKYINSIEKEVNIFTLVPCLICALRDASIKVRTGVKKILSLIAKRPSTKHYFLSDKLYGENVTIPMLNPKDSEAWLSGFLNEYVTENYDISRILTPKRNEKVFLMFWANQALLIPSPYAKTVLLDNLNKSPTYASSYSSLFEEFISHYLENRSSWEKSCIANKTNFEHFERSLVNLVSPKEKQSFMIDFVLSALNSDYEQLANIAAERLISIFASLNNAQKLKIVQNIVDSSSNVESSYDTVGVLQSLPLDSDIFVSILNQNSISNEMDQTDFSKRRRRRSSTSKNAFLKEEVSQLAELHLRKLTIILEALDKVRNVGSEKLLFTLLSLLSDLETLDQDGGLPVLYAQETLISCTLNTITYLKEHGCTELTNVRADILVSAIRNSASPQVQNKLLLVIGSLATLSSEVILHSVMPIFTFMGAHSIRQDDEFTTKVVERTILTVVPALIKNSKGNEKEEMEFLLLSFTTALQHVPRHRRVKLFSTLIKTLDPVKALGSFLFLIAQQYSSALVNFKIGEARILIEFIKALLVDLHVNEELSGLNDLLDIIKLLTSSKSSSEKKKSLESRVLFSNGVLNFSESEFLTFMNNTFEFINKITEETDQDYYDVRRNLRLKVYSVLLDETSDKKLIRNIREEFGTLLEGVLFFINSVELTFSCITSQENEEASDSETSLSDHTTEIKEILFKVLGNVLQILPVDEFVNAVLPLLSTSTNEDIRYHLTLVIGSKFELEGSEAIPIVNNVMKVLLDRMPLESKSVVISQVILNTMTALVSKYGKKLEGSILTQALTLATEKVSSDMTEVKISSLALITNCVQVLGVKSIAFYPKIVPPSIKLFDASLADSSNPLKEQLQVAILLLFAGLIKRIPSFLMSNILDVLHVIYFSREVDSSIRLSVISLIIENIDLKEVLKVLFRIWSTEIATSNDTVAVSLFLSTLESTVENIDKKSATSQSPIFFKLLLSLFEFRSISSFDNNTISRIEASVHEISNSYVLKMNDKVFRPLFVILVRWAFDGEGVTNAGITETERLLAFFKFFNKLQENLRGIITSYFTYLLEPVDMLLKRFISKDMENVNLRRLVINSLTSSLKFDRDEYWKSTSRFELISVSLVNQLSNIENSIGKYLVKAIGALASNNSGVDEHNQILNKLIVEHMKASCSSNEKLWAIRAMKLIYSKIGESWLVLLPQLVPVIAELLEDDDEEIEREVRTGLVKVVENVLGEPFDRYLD

Utp4 = target: T3, Utp4 (S. cerevisiae, UniProt Q06679 1-776); assay: cross-linking; DSS (0.2 mM, H12/D12) cross-linking of SEC-purified endogenous UtpA, 25 °C, 30 min, 50 mM HEPES-NaOH pH 7.6, 200 mM NaCl, 1 mM EDTA; cross-linked peptides found by mass spectrometry (pLink); conditions: both partners purified
T3 construct: Utp4, S. cerevisiae, subunit of UtpA; No tag is named for it in either strain; strains are in Supplementary Data 1; source: endogenous, S. cerevisiae YSK32, co-purified with Utp10-GFP; overexpressed (galactose promoter) in S. cerevisiae YSK122, co-purified with Utp15-mCherry
T3 sequence (looked up): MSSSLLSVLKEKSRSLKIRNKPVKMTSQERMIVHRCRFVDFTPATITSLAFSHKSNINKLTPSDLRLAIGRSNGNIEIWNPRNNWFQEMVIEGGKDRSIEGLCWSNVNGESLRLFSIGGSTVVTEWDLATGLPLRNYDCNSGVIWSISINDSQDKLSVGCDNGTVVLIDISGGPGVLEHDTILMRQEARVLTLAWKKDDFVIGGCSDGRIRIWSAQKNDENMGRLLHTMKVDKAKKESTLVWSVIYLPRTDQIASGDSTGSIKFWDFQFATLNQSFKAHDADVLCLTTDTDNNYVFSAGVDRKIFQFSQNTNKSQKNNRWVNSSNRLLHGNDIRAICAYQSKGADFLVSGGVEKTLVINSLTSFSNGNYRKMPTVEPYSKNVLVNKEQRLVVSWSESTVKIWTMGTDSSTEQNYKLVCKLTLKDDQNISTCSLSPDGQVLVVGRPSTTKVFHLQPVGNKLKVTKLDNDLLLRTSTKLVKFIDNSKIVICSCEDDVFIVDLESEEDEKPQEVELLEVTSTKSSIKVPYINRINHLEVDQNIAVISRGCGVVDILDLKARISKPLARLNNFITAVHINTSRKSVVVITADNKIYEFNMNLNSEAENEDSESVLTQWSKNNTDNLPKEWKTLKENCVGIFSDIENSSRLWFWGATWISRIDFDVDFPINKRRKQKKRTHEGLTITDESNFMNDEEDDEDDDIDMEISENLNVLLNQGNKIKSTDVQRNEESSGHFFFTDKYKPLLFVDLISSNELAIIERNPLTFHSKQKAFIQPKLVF

Utp10-3C-GFP [2] = target: T2, Utp10-3C-GFP; assay: as above; conditions: both partners purified

B1: Utp15-3myc-TEV-mCherry-3FLAG (overexpressed) (natural protein, S. cerevisiae, UniProt Q04305 1-513, looked up)
chain: MSTARPRIITSKAPLLPQQTTPEQRYWRQYTSAQLVKEHNSVTHISFNPQHPHDFAVTSSTRVQIFSSRTRQVIKTFSRFKDVVYSASFRSDGKLLCAGDATGLVSVYDSYNPRTILLSINASTHPTHVTKFHTQDNKILATASDDRVTRLWDISNAYEPQLELTGATDYVRTLSFIPAAPHLVATGSYDGLIRLYDTRSSGSTPIYSLNHDQPVENVIAVSPTQIVSCGGNNFKVWDLTSNKKLYERGNFNKAVTCLDYVENFDSPMQSALIASSLDGHVKVFDPLDNFQVKFGWKFSGPVLSCAVSPSTAQGNRHLVAGLSSGLLAIRTKKKEKRSSDKENAPASFNKNAKSNNFQRMMRGSEYQGDQEHIIHNDKVRSQRRMRAFERNINQFKWSEALDNAFVPGMAKELTLTVLQELRKRGKVRVALYGRDESTLEPLLNWCLKGIEDVRSASIVADWVAVVLELYGNTLESSPVLQELMIDLKTKVRHEIHKSKEAQRIEGMLQLLTS
notes: Utp15, S. cerevisiae, subunit of UtpA; Captured by mCherry in a4; the complex is eluted by TEV cleavage, so mCherry-3FLAG is off in the SEC step (a5); also called Utp15-TEV-mCherry; Utp15-mCherry; source: S. cerevisiae YSK122, overexpressed (galactose promoter); captured from lysate on anti-mCherry nanobody sepharose, TEV elution, SEC; not shown: 3myc, C-terminal, kept; mCherry, C-terminal, kept; …
- binding result (Utp5): binds
- binding result (Utp9): binds
- binding result (Utp8): binds

Binder: B2
- binding result (Utp10-3C-GFP [1]): binds

Binder: B3
- binding result (Utp4): binds
- binding result (Utp10-3C-GFP [2]): binds
